Laboratory results taken from publication PMC5602631, “Crimean-Congo hemorrhagic fever virus nucleocapsid protein has dual RNA binding modes”.
Where “and” joins values, the source holds several entries; their conditions need not be identical. Equal values may be shown once.

How the values were obtained:
[1] = molecular target: CCHFV nucleocapsid protein (N) (Crimean-Congo hemorrhagic fever virus strain 10200) (UniProt P89522); assay: filter binding; conditions: 40 mM Tris-HCl pH 7.4, 80 mM NaCl (or 250 mM), 20 mM KCl, 1 mM DTT, room temperature, 30-45 min
Chain of CCHFV nucleocapsid protein (N) (Crimean-Congo hemorrhagic fever virus strain 10200) (P89522 whole entry): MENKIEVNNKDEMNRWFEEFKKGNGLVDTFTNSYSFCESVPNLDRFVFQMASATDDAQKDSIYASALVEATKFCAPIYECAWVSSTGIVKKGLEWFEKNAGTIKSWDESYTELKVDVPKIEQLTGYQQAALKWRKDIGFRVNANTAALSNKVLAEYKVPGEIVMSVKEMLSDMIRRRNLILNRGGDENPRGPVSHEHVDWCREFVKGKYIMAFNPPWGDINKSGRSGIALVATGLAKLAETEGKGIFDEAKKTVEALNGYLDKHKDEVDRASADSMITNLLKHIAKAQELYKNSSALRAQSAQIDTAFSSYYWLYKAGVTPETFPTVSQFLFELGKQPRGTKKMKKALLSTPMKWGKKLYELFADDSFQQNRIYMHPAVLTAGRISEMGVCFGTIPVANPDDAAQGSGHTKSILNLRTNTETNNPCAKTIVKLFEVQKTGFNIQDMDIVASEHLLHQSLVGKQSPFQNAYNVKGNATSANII

[2] = molecular target: CCHFV nucleocapsid protein (N) (Crimean-Congo hemorrhagic fever virus strain 10200) (UniProt P89522); assay: BLI; conditions: 40 mM Tris-HCl pH 7.4, 80 mM NaCl (or 250 mM), 20 mM KCl, 1 mM DTT, room temperature, 30-45 min
[3] = molecular target: CCHFV nucleocapsid protein (N) (Crimean-Congo hemorrhagic fever virus strain 10200) (UniProt P89522); assay: tryptophan fluorescence; conditions: 40 mM Tris-HCl pH 7.4, 80 mM NaCl (or 250 mM), 20 mM KCl, 1 mM DTT, room temperature, 30-45 min
[4] = molecular target: CCHFV nucleocapsid protein (N) (Crimean-Congo hemorrhagic fever virus …, UniProt P89522 1-482); assay: competition; vs labeled 5' NCR; 40 mM Tris-HCl pH 7.4, 80 mM NaCl (or 250 mM), 20 mM KCl, 1 mM DTT, room temperature, 30-45 min; conditions: protein: recombinant; tags: His (C-terminal per Methods; Results says N-terminal); biotin (BLI); none (fluorescence); single strand
Chain of CCHFV nucleocapsid protein (N) (P89522 whole entry): as above

Molecule | Kd [1] | Kd [2] | Kd [3] | binding result [4]
CCHF S-segment vRNA | 55 nM | – | – | –
5' NCR (30 nt) | 121 nM and 147 nM | 131 nM | 167 nM | –
Wild type panhandle | 42 nM and 47 nM | 41 nM | 48 nM | –
Nonviral ssRNA (30 nt) | 121 nM | – | – | –
5' NCR 100 nt | 131 nM | – | – | –
5' NCR 60 nt | 131 nM | – | – | –
Gluc RNA | 55 nM and 43 nM | – | – | –
UGGGCGUAAGCGGCACGUGUUUCUUUGAGA (ssRNA) [3' NCR (30 nt)] | – | – | – | binds
